Data: the supplement of paper PMC10567573

B1: TCAP (parent)
chain: YQRVLPLPIFTPAKMGATKEERED

Variants of: B1
Assay: protein stability index of a GFP-peptide fusion (GPS, HEK-293T) (PSI 1-6); higher = more stable
Conditions: c terminus: a fixed tail appended
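Note: lentivirally expressed fusions sorted by FACS into six bins by GFP to DsRed ratio, PSI derived from sequencing read proportions per bin multiplied by bin number.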

Protein stability index of substitutions, site by site:
P12: C 2.16 | F 2.98 | R 3.47 | H 3.12 | N 2.82 | A 3.44 | Y 2.74 | K 3.2 | T 3.26 | S 3.2 | M 2.91 | I 3.48 | V 3.07 | D 2.92 | E 3.02 | L 2.64 | W 1.94 | G 3.11 | Q 3.84
T11: F 2.25 | S 2.36 | D 3.96 | K 3.63 | N 3.49 | H 3.49 | C 1.79 | V 2.67 | M 2.08 | I 2.68 | L 2.71 | R 3.21 | Y 2.62 | E 2.52 | A 1.87 | G 3.12 | P 3.31 | W 2.25 | Q 3.44
P6: D 2.62 | M 1.65 | W 1.56 | I 2.19 | N 1.35 | Q 1.91 | T 2.05 | A 2.09 | Y 2.35 | C 1.72 | S 1.82 | H 2.11 | R 1.66 | L 1.73 | V 2.17 | K 1.89 | G 1.9 | F 2.25 | E 2.22
A13: I 2.18 | G 2.38 | H 1.69 | L 1.76 | E 2.9 | D 2.95 | K 2.44 | F 2.04 | C 1.72
L7: G 2.46 | E 2.61 | S 2.31 | K 3.33 | A 1.75 | F 1.76 | D 2.1 | M 2.43 | R 3.08 | H 4.72 | Y 2.71 | N 1.54 | P 2.59 | T 1.73 | W 2.86 | I 2.19 | Q 2.56 | C 1.42 | V 2.4
I9: S 3.79 | P 4.02 | C 3.04 | M 3.07 | N 4.47 | W 2.2 | K 3.96 | A 3.96 | F 2.31 | T 4.02 | E 4.51 | L 2.41 | Q 3.74 | R 4.16 | V 2.88 | H 2.83 | Y 2.58 | D 3.63 | G 3.79
V4: W 2.55 | P 2.67 | N 1.83 | Y 2.26 | S 1.72 | T 1.88 | Q 1.9 | R 1.7
F10: E 4.33 | V 3.65 | H 3.94 | Q 4.5 | D 4.32 | C 3.63 | N 4.05 | K 4.08 | A 4.3 | R 4.18 | L 3.73 | Y 2.48 | S 4.06 | M 3.71 | T 4.04 | I 3.72 | P 4.14 | G 4.44
L5: V 1.96 | N 1.8 | P 2.33 | Y 2.37 | W 2.81 | I 1.87 | K 2.13 | T 1.98 | C 1.86 | R 2.7 | D 3.06 | E 2.42 | F 2.52 | A 2.05 | S 1.97 | H 2.08 | M 1.9 | Q 2.03 | G 2.89
P8: E 2.46 | H 2.15 | G 1.37 | T 2.32 | I 2.15 | D 1.57 | L 1.64 | F 1.45 | C 2.62 | K 2.18 | A 1.96 | R 1.88 | Q 2.12 | N 2.11 | Y 2.51 | W 2.73 | V 2 | M 2.36
